Assay results: patent US20070253950A1 (Pfizer, published 2007)

Tests used:
[1] = molecular target: T1, cynomolgus monkey RAGE, on cells (cynomolgus monkey, UniProt Q15109 23-404 (human entry)); test: cell-based ELISA, transfected 293 cells
T1 construct: on transfected 293 cells or endogenous in lung sections; also called 293-cyno monkey RAGE; RAGE in monkey lung
T1 chain: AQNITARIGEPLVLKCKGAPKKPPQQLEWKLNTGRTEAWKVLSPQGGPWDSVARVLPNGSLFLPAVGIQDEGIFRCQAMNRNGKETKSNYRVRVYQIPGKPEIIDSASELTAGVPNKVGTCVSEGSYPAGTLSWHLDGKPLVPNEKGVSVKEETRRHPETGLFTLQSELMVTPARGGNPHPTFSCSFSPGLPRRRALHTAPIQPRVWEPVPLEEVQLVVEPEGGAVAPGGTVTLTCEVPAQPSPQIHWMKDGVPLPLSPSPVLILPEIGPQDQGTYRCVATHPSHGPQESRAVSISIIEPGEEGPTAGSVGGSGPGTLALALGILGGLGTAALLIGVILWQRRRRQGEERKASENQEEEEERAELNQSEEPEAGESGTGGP
Description: (§1) Human embryonic kidney 293 cells (American Tissue Type Culture, Manassas, Va.) cells were plated at 5×10⁶ cells per 10 cm² tissue culture plate and cultured overnight at 37° C. The next day cells were transfected with RAGE expression plasmids (pAdori1-3 vector encoding mouse, human, baboon, cynomologus monkey or rabbit RAGE) using LF2000 reagent (Invitrogen, Carlsbad Calif.) at a 4:1 ratio of reagent to plasmid DNA using the manufacturers protocol. Cells were harvested 48 hrs post-transfection using trypsin, washed once with phosphate buffered saline (PBS), then suspended in growth media without serum at a concentration of 2×10⁶ cells/ml.
(§2) Primary antibodies at 1 μg/ml were serially diluted at 1:2 or 1:3 in PBS containing 1% bovine serum albumin (BSA) in a 96-well plate. RAGE-transfected 293 cells or control parental 293 cells (50 μl) at 2×10⁶ cells/ml in serum-free growth medium were added to U-bottom 96 well plate for a final concentration of 1×10⁵ cells/well. The cells were centrifuged at 1600 rpm for 2 minutes. The supernatants were gently discarded by hand with a one-time swing and the plate was patted gently to loose the cell pellet. The diluted primary anti-RAGE antibodies or isotype-matching control antibodies (100 μl) in cold PBS containing 10% fetal calf serum (FCS) were added to the cells and incubated on ice for 1 hour. The cells were stained with 100 μl of diluted secondary anti-IgG antibody HRP conjugates (Pierce Biotechnology, Rockford, Ill.) on ice for 1 hour. Following each step of primary antibody and secondary antibody incubations, the cells were washed 3 times with ice-cold PBS. 100 μl of substrate TMB1 component (BIO FX, TMBW-0100-01) was added to the plate and incubated for 5-30 minutes at room temperature. The color development was stopped by adding 100 μl of 0.18M H₂SO₄. The cells were centrifuged and the supernatants are transferred to a fresh plate and read at 450 nm (Soft MAX pro 4.0, Molecular Devices Corporation, Sunnyvale, Calif.).

[2] = molecular target: T2, human RAGE, full length, on cells (human, UniProt Q15109 23-404); test: cell-based ELISA, transfected 293 cells
T2 construct: on transfected or infected 293 cells, stably transfected CHO cells, or endogenous in human lung sections; also called cell-surface hRAGE; 293-human RAGE
Description: as §1, §2

[3] = molecular target: T3, human RAGE-strep tag fusion protein (human, UniProt Q15109 23-344); test: BIACORE capture assay: hRAGE-SA over antibody captured on anti-human Fc; steady state affinity; FC3
T3 construct: monomeric soluble human RAGE; also called hRAGE-SA; soluble human streptavidin-tagged RAGE
T3 sequence (Q15109 other isoform, or with tags, fused parts or gaps): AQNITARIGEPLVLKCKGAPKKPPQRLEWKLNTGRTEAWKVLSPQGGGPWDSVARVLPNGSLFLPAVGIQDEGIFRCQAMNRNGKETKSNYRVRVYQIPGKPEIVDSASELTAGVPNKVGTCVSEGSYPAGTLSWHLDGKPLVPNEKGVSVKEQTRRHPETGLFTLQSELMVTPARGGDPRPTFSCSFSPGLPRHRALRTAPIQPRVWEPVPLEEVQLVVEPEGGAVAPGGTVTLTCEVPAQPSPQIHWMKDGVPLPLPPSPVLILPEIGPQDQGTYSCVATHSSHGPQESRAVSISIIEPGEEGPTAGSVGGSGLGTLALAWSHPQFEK
Description: (§3) The assays were performed by coating anti-human Fc antibodies onto a CM5 BIA chip with 5000 RU (pH 5.0, 7 min.) in flow cells 1-4. Each antibody was captured by flowing at 2.0 μg/ml over the anti-Fc antibodies in flow cells 2-4 (flow cell 1 was used as a reference).

[4] = molecular target: T3, human RAGE-strep tag fusion protein; test: BIACORE capture assay: hRAGE-SA over antibody captured on anti-human Fc; 1:1 Langmuir global fit; average of FC2-FC4
Description: as §3

[5] = molecular target: mLox1-Fc (mouse, UniProt Q9EQ09 60-363, limits assumed); test: direct binding ELISA, receptor coated 1 µg/ml, antibody 20 µg/ml
Sequence of mLox1-Fc (Q9EQ09 60-363 limits assumed): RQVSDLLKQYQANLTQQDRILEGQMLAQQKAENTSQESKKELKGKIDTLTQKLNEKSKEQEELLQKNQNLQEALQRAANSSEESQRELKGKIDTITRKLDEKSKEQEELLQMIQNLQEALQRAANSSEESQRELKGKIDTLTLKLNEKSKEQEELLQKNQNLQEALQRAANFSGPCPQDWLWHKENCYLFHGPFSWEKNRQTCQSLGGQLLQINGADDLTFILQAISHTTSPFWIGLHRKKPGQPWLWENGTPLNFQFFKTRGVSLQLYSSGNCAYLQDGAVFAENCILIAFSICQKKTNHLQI
Description: (§4) These receptors were chosen because they are cell-surface expressed, like RAGE, and their interaction with ligand is similarly dependent on charge. Tested receptors were rhVCAM-1, rhICAM-1-Fc, rhTLR4 (C-terminal His tag), rhNCAM-1, rhB7-H1-Fc mLox1-Fc, hLox1-Fc and hRAGE-Fc (as a positive control). ELISA plates were coated overnight with 1 μg/ml of the listed receptor proteins.

[6] = molecular target: rhB7-H1-Fc (human, UniProt Q9NZQ7 19-239); test: as above
Sequence of rhB7-H1-Fc (Q9NZQ7 19-239 limits assumed): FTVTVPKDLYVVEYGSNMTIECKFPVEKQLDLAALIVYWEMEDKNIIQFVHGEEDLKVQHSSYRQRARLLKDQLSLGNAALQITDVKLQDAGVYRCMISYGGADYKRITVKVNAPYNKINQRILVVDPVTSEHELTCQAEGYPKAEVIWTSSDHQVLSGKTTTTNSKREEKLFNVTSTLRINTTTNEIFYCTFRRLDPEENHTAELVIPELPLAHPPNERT
Description: as §4

[7] = molecular target: T4, rhVCAM-1 (human, UniProt P19320 25-698); test: as above
T4 sequence (looked up): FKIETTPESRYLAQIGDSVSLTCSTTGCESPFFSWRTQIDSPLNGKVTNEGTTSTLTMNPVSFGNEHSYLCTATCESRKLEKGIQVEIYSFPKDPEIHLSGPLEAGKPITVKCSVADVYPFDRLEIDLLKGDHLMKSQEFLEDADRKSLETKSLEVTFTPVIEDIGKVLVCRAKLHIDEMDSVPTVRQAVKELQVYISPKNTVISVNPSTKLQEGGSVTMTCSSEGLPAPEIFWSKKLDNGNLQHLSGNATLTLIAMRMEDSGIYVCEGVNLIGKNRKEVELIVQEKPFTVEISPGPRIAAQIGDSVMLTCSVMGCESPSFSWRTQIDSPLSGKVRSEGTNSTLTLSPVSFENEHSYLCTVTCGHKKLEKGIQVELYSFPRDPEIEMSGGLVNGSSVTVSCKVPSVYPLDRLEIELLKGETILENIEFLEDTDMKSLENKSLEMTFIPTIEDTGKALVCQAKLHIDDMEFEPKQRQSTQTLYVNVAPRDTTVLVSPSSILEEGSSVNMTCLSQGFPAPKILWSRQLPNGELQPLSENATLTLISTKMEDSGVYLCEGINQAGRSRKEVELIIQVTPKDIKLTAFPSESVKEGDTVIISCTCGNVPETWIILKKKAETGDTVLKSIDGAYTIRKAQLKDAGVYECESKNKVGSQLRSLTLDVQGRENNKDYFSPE
Description: as §4

B1: chimeric XT-M4 (antibody, V domains shown)
VH: EVQLVESGGGLVQPGRSLKLSCVVSGFTFNNYWMTWIRQTPGKGLEWVASINNSGDNTYYPDSVKDRFTISRDNAKSTLYLQMNSLRSEDTATYYCTRGGDITTGFDYWGQGVMVTVSS
VL: DIQMTQSPSSMSVSLGDTITITCRASQDVGIYVNWFQQKPGKSPRRMIYRATNLADGVPSRFSGSRSGSIYSLTISSLESEDVADYHCLEFDEHPLTFGSGTKVEIK
modifications: N-linked oligosaccharide at Asn52 (CDR2) on part of the heavy chains
notes: rat XT-M4 variable regions fused to human kappa light chain and human IgG1 heavy chain constant regions; L234A and G237A in the human IgG1 Fc region; also called chimeric antibody XT-M4; XT-M4-A-1
- EC50 [1]: ~1.66 nM
- EC50 [2]: ~0.8 nM
- Kd [3]: 11 nM
- Kd [4]: 7.91 nM
- koff [4]: 0.0351 s⁻¹
- kon [4]: 4.41e+06 M⁻¹ s⁻¹
- OD450 [5]: 0.01
- OD450 [6]: 0.003
- OD450 [7]: 0.004
